Data published in patent publication US20110171231A1 (published 2011).
Blank lines part the entries; values can stand above or below the molecule they belong to.

Tests used:
[1] = target: T1, recombinant mouse PlGF-2 (mouse, UniProt P49764 24-158, limits assumed); assay: competition ELISA on mPlGF-coated plate; blocked ligand: biotinylated NRP-2
T1 sequence (looked up): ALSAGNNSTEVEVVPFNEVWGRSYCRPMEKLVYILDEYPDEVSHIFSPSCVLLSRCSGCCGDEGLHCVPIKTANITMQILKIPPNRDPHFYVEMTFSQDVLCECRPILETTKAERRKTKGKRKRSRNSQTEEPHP
Description: The ability of the anti-PlGF Mabs C9.V2 and 7A10 to block the interaction between PlGF and its co-receptors NRP-1 and NRP-2 (Gluzman-Poltorak et al., 2000; Mamluk et al., 2002) was also tested. For PlGF/NRP1 and PlGF/NRP2 competition binding assays, Microtiter plates (Nunc, Rochester, N.Y., USA) were coated with recombinant mouse PlGF (BioVision, Mountain View, Calif., USA) either at 2 μg/mL (for PlGF/NRP1 binding) or at 4 ug/mL (for PlGF/NRP2 binding) in PBS. After an overnight incubation at 4° C., assay plates were washed with wash buffer (PBS/0.05% Tween 20) and treated with block buffer (PBS/0.5% BSA) for 1 to 2 hours. Samples were serially diluted in sample diluent (PBS/0.5% BSA/15 ppm Proclin/0.05% Tween 20/0.2% BGG/0.25% CHAPS/5 mM EDTA/0.3 M NaCl, pH7.4) containing 0.25 ug/mL of heparin (Sigma, St. Louis, Mo., US) and incubated in the presence of either 100 ng/mL of biotin-mouse
NRP1-Fc (0.66 nM for PlGF/NRP1 binding) or 425 ng/mL of biotin-NRP2-Fc (6 nM for PlGF/NRP2-binding). After incubation for 2 hours, assay plates were washed 6 times with wash buffer and then incubated for 45 to 60 minutes with AMDEX streptavidin-HRP (GE Healthcare, Pittsburgh, Pa., USA) diluted 10,000 folds in assay buffer (PBS/0.5% BSA/0.05% Tween 20, pH7.4). […] Absorbance was measured at 450 nm against a reference wavelength of 620 nm.

[2] = target: T1, recombinant mouse PlGF-2; assay: cell-based or functional assay
[3] = target: T1, recombinant mouse PlGF-2; assay: Biacore, anti-mouse Fc chip
[4] = target: T2, human PlGF-2 (human, UniProt P49763-3 19-170); assay: Biacore, anti-mouse Fc chip
T2 construct: Panning used human PlGF residues 19-116 and human PlGF-1; also called hPlGF-2; hPlGF
T2 sequence (looked up): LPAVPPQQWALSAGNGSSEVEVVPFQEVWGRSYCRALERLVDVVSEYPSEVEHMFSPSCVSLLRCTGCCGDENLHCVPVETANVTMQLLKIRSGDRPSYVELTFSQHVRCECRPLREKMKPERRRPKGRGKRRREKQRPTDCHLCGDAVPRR

IC50 (read off the curve) [1]: 4 nM
Molecule: mFLT1(1-3)-IgG (from UniProt P35969) (Fc fusion)

IC50 (read off the curve) [1]: ~4 nM
calculated IC50 (PlGF-induced migration of 67NR-VEGFR-1 cells, FIG. 2) [2]: 0.8 nM
Kd [3]: 0.9 nM
Kd [4]: 0.8 nM
B1: anti-PlGF monoclonal antibody C9.V2 (antibody, mouse IgG2a, V domains shown)
VH: EVQLVESGGGLVQPGGSLRLSCAASGFTFTNTWISWVRQAPGKGLEWVGSITPANGYTNYADSVKGRFTISADTSKNTAYLQMNSLRAEDTAVYYCARAVYPWFFAYWGQGTLVTVSS
VL: DIQMTQSPSSLSASVGDRVTITCRASQYVSHAVAWYQQKPGKAPKLLIYSASFLYSGVPSRFSGSGSGTDFTLTISSLQPEDFATYYCQSAYTPPTTFGQGTKVEIK
notes: also called C9v2.9; anti-PlGF MAb C9v2
